Reference: patent publication US11590206B2, “Liquid pharmaceutical composition” (SANOFI, priority 2017, dated 2023)

Key:
Type in all cases: physicochemical
[1] = Rheology with rotation and capillary rheometer; conditions: Table 2 composition, 5.0 mg/ml; shear rates>1/s
Method: To this end, a composition as described above in Table 2 containing 5.0 mg/ml SEQ ID NO.: 2 was added to a rheometer and subjected to measurement. The experiments were performed with a MCR rotation rheometer (Anton Paar) and with capillary rheometer Kinexus (Malvern). […] High shear rates have no influence on the shear viscosity of the formulation (see also FIG. 7).

[2] = ThT assay: fibrillation tendency under thermal and mechanical stress
Method: Investigations were carried out to determine fibrillation tendencies under stress conditions using a ThT assay. […] Amyloid-like structures show a beta-sheet rich structure. Fibrillation of peptide solutions is induced by thermic and mechanical stress. Samples are stressed under defined conditions using Fluoroskan Ascent FL.
For the tests in Fluoroskan Ascent FL 200 μL sample were placed into 96 well microtiterplate PS, flat bottom, Greiner Fluotrac No. 655076. Plates were sealed with Scotch Tape (Quiagen). […] The kinetic was monitored by measuring fluorescence intensity every 20 minutes.
Solutions were transferred in 2 mL Eppendorf vials and 20 μL of a 10.1 mM ThT solution in H2O were added to 2 mL of peptide solution to receive a final concentration of 100 μM ThT. For each sample eight replicates were tested.

[3] = Small angle X-ray scattering (SAXS): oligomer size and shape; conditions: in the formulations
Method: SAXS measurements were performed at a synchrotron light source (DESY Hamburg). The scattering data from all samples were collected loading 20 microliters of solutions into the capillary and flowing the whole volume across the X-ray beam. Per each sample 20 frames of 0.045 s exposure were collected and, after a statistical consistency check, averaged. The corresponding signals collected for the placebo was then subtracted. Each sample measurement was repeated at least twice to ensure reproducibility.

[4] = FTIR spectroscopy: ratio of alpha and beta sheets; conditions: 5.0 mg/ml and 75 mg/mL named; phosphate buffer, m-cresol, sodium chloride (Table 2)
Method: The physical and chemical stability of the stored formulations is determined with the help of the following tests: • Dynamic light scattering (DLS) method was applied to access the subvisible particle size distribution • Fourier transform infrared spectroscopy (FTIR) to analyze the ratio of alpha and beta sheets • Chemical stability (purity and impurities), determined by HPLC • Proteins of high molecular weight, determined by HPSEC
FTIR spectroscopy is a suitable method for the determination of a protein's secondary structure. The vibration giving the most pronounced signal in FTIR spectroscopy is the C═O stretching vibration of amide groups resulting in a signal in the so-called amide I-region (1700-1600 cm^−1). This vibration is sensitive to the hydrogen-bonding pattern, dipole-dipole interactions and the geometry of the polypeptide backbone. […]
As a consequence, the individual component bands that represent the different structural elements, such as α-helices, β-sheets, turns and irregular structures are often not resolved and difficult to identify in the broad amide I-band contours of the experimentally obtained spectra. […] The absolute values for protein conformation determined by the chemometric method can therefore be systematically biased, however, the repeatability of results for samples of the same protein is usually in the range of +/−2%. […]

H-dSer-Q-G-T-F-T-S-D-L-S-K-Q-K(γE-x53)-ESKAAQDFIEWLKAGGPSSGAPPPS-NH2 (HXQGTFTSDLSKQKESKAAQDFIEWLKAGGPSSGAPPPS; D-Ser1, K14 gammaE-palmitoyl lipidation, C-terminal amide; Exendin-4 analogue; MOD_RES (2)..(2) Xaa is a D-Ser; MOD_RES (14)..(14) Lys is functionalized at the amino side chain group as Lys((S)-4-carboxy-4-hexadecanoylamino-butyryl); MOD_RES (39)..(39) Ser is modified with an NH2 group) [SEQ ID NO.: 2, γE-x53 is (S)-4-Carboxy-4-hexadecanoylamino-butyryl-]
fluid property (shear stress, viscosity vs shear rate) [1]: Newtonian fluid
Fibrillation (ThT fluorescence) ([2]; 1 mg/ml in PBS, 100 h incubation at +37° C. and 500 rpm): negligible fibrillation
Fibrillation (ThT fluorescence) ([2]; 5 mg/mL in phosphate buffer, NaCl and m-cresol, pH≈6.6, 100 hours at 37° C. shaking (500 rpm)): no fibrillation was observed
Oligomeric state (best fit of SAXS curve) [3]: all hexameric
measured value of alpha sheets (FTIR) [4]: 48.9%
measured value of beta sheets (FTIR) [4]: 13.1%
